This note sets out measurements from paper PMC12407086.

For experiment [1], the target named is recombinant human desmoglein-1 (DSG-1), purified, full-length (human) (UniProt Q02413). Briefly: single-molecule force spectroscopy (AFM); AFM tips functionalized with DSG-1 against living S. aureus AD08.
For experiment [2] the target is unchanged. Briefly: dynamic force spectroscopy (AFM, SMFS); DSG-1 tips against L. lactis SdrD^(+); retraction speed 0.5, 1, 3, 5 and 10 μm s^−1; Bell-Evans fit; only adhesion forces of >1000 pN considered.
The target is the same in experiment [3]. Put plainly: single-molecule force spectroscopy (AFM); DSG-1 tips against L. lactis SdrD^(+) after EDTA, with CaCl2 added to 10 mM (15 min incubation).
Experiment [4] has as its target pPROX^∗ peptide (cysteine-bearing peptide based on the p_(PROX) sequence of DSG-1) (human). Briefly: single-molecule force spectroscopy (AFM); AFM tips carrying pPROX^∗ by a PEG27-maleimide linker against living L. lactis SdrD^(+); pulling speed 1 μm s^−1.
For experiment [5], the target named is recombinant human desmoglein-1 (DSG-1), purified, full-length (human) (UniProt Q02413). Put plainly: single-molecule force spectroscopy (AFM); AFM tips functionalized with DSG-1 against living L. lactis SdrD^(+) on a polystyrene dish; PBS, room temperature; approach and retraction 1 μm s^−1, applied force 250 pN, dwell time 0 s.
Experiment [6] shares this target. Put plainly: single-molecule force spectroscopy (AFM); DSG-1 tips against L. lactis SdrD^(+) in the presence of 1 mM EDTA (15 min incubation).

Sequence of pPROX^∗ peptide (cysteine-bearing peptide based on the p_(PROX) sequence of DSG-1) (human) (Q02413 other isoform, or with tags, fused parts or gaps): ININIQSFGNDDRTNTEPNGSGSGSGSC

With “SdrD on the surface of Staphylococcus aureus AD08 (clinical isolate from an infected skin lesion of a patient with AD) (from UniProt Q2G0L4 36-1315) (natural protein)”, the rupture force (main peak) in experiment [1] stood at 1550 pN.
Usually koff stands for the rate constant with which the complex falls apart. “serine-aspartate repeat protein D (SdrD) expressed on the surface of Lactococcus lactis MG1363 (pKS80::sdrD) (from UniProt Q2G0L4 36-1315) (natural protein)”: the koff in experiment [2] was 1.4e-07 s⁻¹. Moreover, the adhesion force with 10 mM Ca^2+ in experiment [3] is 2600 pN. In experiment [4], this substance gave an adhesion frequency of 33% and a rupture force of 1810 pN. Further, in experiment [5], the adhesion (rupture) force was found to be 2080 pN and the binding probability was 49%. In experiment [6], the adhesion force with 1 mM EDTA was 2160 pN.
